The record followed here is PMC9482650, “Quantitative fragmentomics allow affinity mapping of interactomes” (Nature Communications, 2022).

Among the targets are DLG4_1, P78352; FRMPD3, Q5JV73; IL16_1, Q14005; Inadl_8, Q8NI35; LDB3, O75112; LIMK2, P53671; MAGI2_4, Q86UL8; NOS1, P29475.
Assay in all cases: holdup assay
What all share (set-up): key: below the threshold = too weak to quantify, mostly under pKd 3.1 to 4

Another experiment has as its target T1, GRIP1_3, Q9Y3R0.
T1 sequence (Q9Y3R0 247-346, limits assumed, looked up): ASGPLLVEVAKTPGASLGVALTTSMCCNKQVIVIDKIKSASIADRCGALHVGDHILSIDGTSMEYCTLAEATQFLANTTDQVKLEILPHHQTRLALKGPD
The note with it: plain residues with an end cap or a label only (N-terminal biotin on a linker: ttds).

The target of a further experiment is GRIP2_7, Q9C0E4. The note with it: plain residues with an end cap or a label only (N-terminal biotin on a linker: ttds).
Another experiment addresses T2, HTRA3, P83110.
T2 sequence (P83110 354-453, limits assumed, looked up): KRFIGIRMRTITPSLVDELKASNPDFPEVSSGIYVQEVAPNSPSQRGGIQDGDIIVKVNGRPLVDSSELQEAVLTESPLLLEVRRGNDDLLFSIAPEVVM
The note with it: plain residues with an end cap or a label only (N-terminal biotin on a linker: ttds).

In another experiment the target is Inadl_2, Q8NI35. The note with it: plain residues with an end cap or a label only (N-terminal biotin on a linker: ttds).
The next experiment deals with T3, LIN7C, Q9NUP9.
T3 sequence (Q9NUP9 88-185, limits assumed, looked up): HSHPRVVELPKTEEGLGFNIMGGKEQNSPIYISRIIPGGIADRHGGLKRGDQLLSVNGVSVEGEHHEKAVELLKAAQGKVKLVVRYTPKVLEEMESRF

In the next experiment the target is MAGI1_1, Q96QZ7. The note with it: plain residues with an end cap or a label only (N-terminal biotin on a linker: ttds).
A further experiment deals with MAGI2_2, Q86UL8. The note with it: plain residues with an end cap or a label only (N-terminal biotin on a linker: ttds).
In the next experiment the target is MAGI2_6, Q86UL8. The note with it: plain residues with an end cap or a label only (N-terminal biotin on a linker: ttds).
The next experiment has as its target MAGI3_2, Q5TCQ9. The note with it: plain residues with an end cap or a label only (N-terminal biotin on a linker: ttds).
The next experiment has as its target T4, MPP6, Q9NZW5.
T4 sequence (Q9NZW5 125-219, limits assumed, looked up): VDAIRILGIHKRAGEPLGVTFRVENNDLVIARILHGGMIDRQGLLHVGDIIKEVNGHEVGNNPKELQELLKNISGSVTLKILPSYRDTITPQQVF
The note with it: plain residues with an end cap or a label only (N-terminal biotin on a linker: ttds).

The next experiment concerns the target T5, MPP7, Q5T2T1.
T5 sequence (Q5T2T1 134-230, limits assumed, looked up): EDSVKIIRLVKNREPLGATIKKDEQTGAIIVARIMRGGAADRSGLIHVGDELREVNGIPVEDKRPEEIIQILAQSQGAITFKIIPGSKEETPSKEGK
The note with it: plain residues with an end cap or a label only (N-terminal biotin on a linker: ttds).

In the next experiment the target is T6, NHERF3_3, Q5T2W1.
T6 sequence (Q5T2W1 238-333, limits assumed, looked up): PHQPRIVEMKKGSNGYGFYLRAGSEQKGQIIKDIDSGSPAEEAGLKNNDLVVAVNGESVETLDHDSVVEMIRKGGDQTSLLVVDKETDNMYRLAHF
The note with it: plain residues with an end cap or a label only (N-terminal biotin on a linker: ttds).

The next experiment has as its target NHERF4_1, Q86UT5-2. The note with it: plain residues with an end cap or a label only (N-terminal biotin on a linker: ttds).
Another experiment has as its target T7, PDZD7_3, Q9H5P4.
T7 sequence (Q9H5P4 857-944, limits assumed, looked up): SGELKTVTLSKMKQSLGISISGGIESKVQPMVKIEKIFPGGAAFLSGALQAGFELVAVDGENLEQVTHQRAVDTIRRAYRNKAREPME

Another experiment concerns the target PDZRN4_1, Q6ZMN7. The note with it: plain residues with an end cap or a label only (N-terminal biotin on a linker: ttds).
For the next experiment, the target named is T8, RADIL, Q96JH8.
T8 sequence (Q96JH8 971-1071, limits assumed, looked up): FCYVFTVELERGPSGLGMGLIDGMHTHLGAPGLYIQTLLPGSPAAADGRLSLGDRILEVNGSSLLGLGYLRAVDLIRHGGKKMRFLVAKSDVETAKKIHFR
The note with it: plain residues with an end cap or a label only (N-terminal biotin on a linker: ttds).

Another experiment has as its target SCRIB_2, Q14160. The note with it: plain residues with an end cap or a label only (N-terminal biotin on a linker: ttds).
A further experiment concerns the target T9, SNTB1, Q13884.
T9 sequence (Q13884 107-205, limits assumed, looked up): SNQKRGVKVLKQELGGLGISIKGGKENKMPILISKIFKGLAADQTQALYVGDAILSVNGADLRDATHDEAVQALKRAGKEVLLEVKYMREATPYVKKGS

A further experiment deals with T10, SNTG1, Q9NSN8.
T10 sequence (Q9NSN8 52-150, limits assumed, looked up): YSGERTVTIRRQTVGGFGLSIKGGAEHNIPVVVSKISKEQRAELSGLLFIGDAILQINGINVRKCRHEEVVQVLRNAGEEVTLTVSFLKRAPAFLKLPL
The note with it: plain residues with an end cap or a label only (N-terminal biotin on a linker: ttds).

The mark [1] stands for this setting: plain residues with an end cap or a label only (N-terminal biotin on a linker: ttds).
Setting [2] is: plain residues with an end cap or a label only (N-terminal biotin on a linker: ado-ado).

Chain of FRMPD3, Q5JV73 (Q5JV73 12-100): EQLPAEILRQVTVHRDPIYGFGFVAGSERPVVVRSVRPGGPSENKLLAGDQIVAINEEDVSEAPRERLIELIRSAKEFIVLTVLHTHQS
Chain of MAGI2_6, Q86UL8 (Q86UL8 1141-1229): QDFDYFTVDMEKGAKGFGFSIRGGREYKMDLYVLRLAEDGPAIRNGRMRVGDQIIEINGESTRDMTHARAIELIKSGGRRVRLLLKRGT
Chain of IL16_1, Q14005 (Q14005 210-306): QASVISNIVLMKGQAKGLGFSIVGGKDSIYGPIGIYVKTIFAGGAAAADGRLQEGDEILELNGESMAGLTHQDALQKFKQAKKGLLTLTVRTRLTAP
Chain of Inadl_2, Q8NI35 (Q8NI35 238-335): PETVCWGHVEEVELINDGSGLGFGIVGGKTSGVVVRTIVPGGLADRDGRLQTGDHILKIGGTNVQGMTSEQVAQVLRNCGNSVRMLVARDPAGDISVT
Chain of NOS1, P29475 (P29475 9-101): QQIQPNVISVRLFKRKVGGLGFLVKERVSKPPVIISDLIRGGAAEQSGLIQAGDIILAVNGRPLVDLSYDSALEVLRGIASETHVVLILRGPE
Chain of PDZRN4_1, Q6ZMN7 (Q6ZMN7 213-318): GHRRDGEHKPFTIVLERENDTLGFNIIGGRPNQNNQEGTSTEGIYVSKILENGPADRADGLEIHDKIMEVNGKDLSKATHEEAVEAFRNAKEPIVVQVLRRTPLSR
Chain of Inadl_8, Q8NI35 (Q8NI35 1425-1530): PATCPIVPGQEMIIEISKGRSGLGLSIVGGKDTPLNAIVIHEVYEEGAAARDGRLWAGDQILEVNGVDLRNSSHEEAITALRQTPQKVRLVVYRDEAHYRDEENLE
Chain of LDB3, O75112 (O75112 1-94): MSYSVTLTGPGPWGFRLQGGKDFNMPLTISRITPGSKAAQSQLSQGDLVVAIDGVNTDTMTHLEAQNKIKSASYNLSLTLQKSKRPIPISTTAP
Chain of MAGI1_1, Q96QZ7 (Q96QZ7 1-106): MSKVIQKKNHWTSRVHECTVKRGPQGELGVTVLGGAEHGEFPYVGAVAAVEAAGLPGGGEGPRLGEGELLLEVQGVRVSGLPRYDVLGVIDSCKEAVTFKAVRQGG
Chain of DLG4_1, P78352 (P78352 62-152): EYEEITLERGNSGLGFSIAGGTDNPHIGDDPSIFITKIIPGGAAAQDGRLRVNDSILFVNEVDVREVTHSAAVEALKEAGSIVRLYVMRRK
Chain of NHERF4_1, Q86UT5-2 (Q86UT5 other isoform, or with tags, fused parts or gaps): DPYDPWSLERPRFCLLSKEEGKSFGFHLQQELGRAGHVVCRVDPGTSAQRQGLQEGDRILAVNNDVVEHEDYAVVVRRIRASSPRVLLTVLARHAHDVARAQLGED
Chain of SCRIB_2, Q14160 (Q14160 857-960): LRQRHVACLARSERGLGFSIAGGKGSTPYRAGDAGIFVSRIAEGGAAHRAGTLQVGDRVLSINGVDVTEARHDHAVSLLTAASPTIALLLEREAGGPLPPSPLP
Chain of MAGI2_4, Q86UL8 (Q86UL8 772-865): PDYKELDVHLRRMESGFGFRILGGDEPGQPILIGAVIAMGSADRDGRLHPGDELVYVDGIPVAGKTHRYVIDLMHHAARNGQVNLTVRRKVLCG
Chain of GRIP2_7, Q9C0E4 (Q9C0E4 934-1023): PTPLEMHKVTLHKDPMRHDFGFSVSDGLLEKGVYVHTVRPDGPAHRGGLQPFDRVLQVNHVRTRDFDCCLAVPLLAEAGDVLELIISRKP
Chain of LIMK2, P53671 (P53671 143-248): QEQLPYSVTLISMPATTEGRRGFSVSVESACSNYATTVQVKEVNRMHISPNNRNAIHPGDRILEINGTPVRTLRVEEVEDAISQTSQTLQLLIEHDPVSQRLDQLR
Chain of MAGI3_2, Q5TCQ9 (Q5TCQ9 398-503): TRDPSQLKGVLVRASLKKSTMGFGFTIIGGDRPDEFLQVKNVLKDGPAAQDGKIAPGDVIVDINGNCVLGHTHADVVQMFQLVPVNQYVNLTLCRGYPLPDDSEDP
Chain of MAGI2_2, Q86UL8 (Q86UL8 410-522): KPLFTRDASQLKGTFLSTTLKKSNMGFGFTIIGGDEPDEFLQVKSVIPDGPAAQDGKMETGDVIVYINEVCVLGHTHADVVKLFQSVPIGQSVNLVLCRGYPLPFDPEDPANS

With ERKLSSESQV [LRP4, O75096], the pKd (in general, the negative decadic logarithm of the Kd, by convention in mol/L) with DLG4_1, P78352 (setting [1]) was 4.17; with FRMPD3, Q5JV73 (setting [1]) it was “below the threshold”; in the experiment with GRIP1_3, Q9Y3R0 it was “below the threshold”; with GRIP2_7, Q9C0E4 it was “below the threshold”; with HTRA3, P83110 it was “below the threshold”; with IL16_1, Q14005 (setting [1]), 3.59. The pKd result with Inadl_2, Q8NI35 was “below the threshold”; with Inadl_8, Q8NI35 (setting [1]), “below the threshold”; with LDB3, O75112 (setting [1]) it was “below the threshold”; with LIMK2, P53671 (setting [1]) it was “below the threshold”; in the experiment with LIN7C, Q9NUP9 (setting [1]), “below the threshold”; in the experiment with MAGI1_1, Q96QZ7 it was “below the threshold”. Further, the pKd was 4.79 with MAGI2_2, Q86UL8; 3.83 in the experiment with MAGI2_4, Q86UL8 (setting [1]); 3.51 in the experiment with MAGI2_6, Q86UL8; 5.17 with MAGI3_2, Q5TCQ9; “below the threshold” in the experiment with MPP6, Q9NZW5; “below the threshold” with MPP7, Q5T2T1. For the same molecule, the pKd result with NHERF3_3, Q5T2W1 was “below the threshold”; with NHERF4_1, Q86UT5-2, “below the threshold”; in the experiment with NOS1, P29475 (setting [1]), 3.81; with PDZD7_3, Q9H5P4 (setting [1]), “below the threshold”; with PDZRN4_1, Q6ZMN7, “below the threshold”; in the experiment with RADIL, Q96JH8, “below the threshold”. Moreover, the negative-log Kd (pKd) with SCRIB_2, Q14160 was 3.66; in the experiment with SNTB1, Q13884 (setting [1]), 4.05; with SNTG1, Q9NSN8, 4.37.
On to KSRVAFFEEL [NF2, P35240], for which the pKd with DLG4_1, P78352 (setting [2]) is 3.63; with FRMPD3, Q5JV73 (setting [2]) it was 3.5; with IL16_1, Q14005 (setting [2]) it was 3.5; with LDB3, O75112 (setting [2]) it was 3.9; in the experiment with MAGI2_4, Q86UL8 (setting [2]), 3.83; with NOS1, P29475 (setting [2]), 3.58. The pKd with SNTB1, Q13884 (setting [2]) came to 3.54.
Take RSLEEEESQL [GRASP, Q7Z6J2]: the pKd was 3.63 with DLG4_1, P78352 (setting [1]); 3.63 with FRMPD3, Q5JV73 (setting [1]); “below the threshold” with GRIP1_3, Q9Y3R0; “below the threshold” with GRIP2_7, Q9C0E4; “below the threshold” with HTRA3, P83110; “below the threshold” with IL16_1, Q14005 (setting [1]). Besides, the pKd result in the experiment with Inadl_2, Q8NI35 was “below the threshold”; with Inadl_8, Q8NI35 (setting [1]) it was 3.71; with LDB3, O75112 (setting [1]), 3.68; with LIMK2, P53671 (setting [1]), “below the threshold”; with LIN7C, Q9NUP9 (setting [1]), 3.78; in the experiment with MAGI1_1, Q96QZ7 it was “below the threshold”. Also, the pKd result is “below the threshold” with MAGI2_2, Q86UL8; 3.7 with MAGI2_4, Q86UL8 (setting [1]); “below the threshold” with MAGI2_6, Q86UL8; 3.81 with MAGI3_2, Q5TCQ9; 3.53 in the experiment with MPP6, Q9NZW5; “below the threshold” in the experiment with MPP7, Q5T2T1. Also, the pKd entry is “below the threshold” with NHERF3_3, Q5T2W1; 3.9 in the experiment with NHERF4_1, Q86UT5-2; 3.6 in the experiment with NOS1, P29475 (setting [1]); 3.98 with PDZD7_3, Q9H5P4 (setting [1]); 4.17 in the experiment with PDZRN4_1, Q6ZMN7; 3.53 in the experiment with RADIL, Q96JH8. Besides, the pKd with SCRIB_2, Q14160 came out at 3.87; with SNTB1, Q13884 (setting [1]) it was 3.89; in the experiment with SNTG1, Q9NSN8 it was 3.86.
Turning to SRPQRTQTQV [HPV67-E6, A4U7F2], the pKd with DLG4_1, P78352 (setting [1]) is 4.58; with FRMPD3, Q5JV73 (setting [1]), “below the threshold”; with GRIP1_3, Q9Y3R0 it was “below the threshold”; with GRIP2_7, Q9C0E4 it was “below the threshold”; with HTRA3, P83110, “below the threshold”; in the experiment with IL16_1, Q14005 (setting [1]) it was “below the threshold”. The pKd entry with Inadl_2, Q8NI35 is “below the threshold”; in the experiment with Inadl_8, Q8NI35 (setting [1]), “below the threshold”; with LDB3, O75112 (setting [1]), “below the threshold”; in the experiment with LIMK2, P53671 (setting [1]), “below the threshold”; in the experiment with LIN7C, Q9NUP9 (setting [1]), “below the threshold”; with MAGI1_1, Q96QZ7, “below the threshold”. For the same molecule, the negative logarithm of the Kd (pKd) with MAGI2_2, Q86UL8 is 5.32; with MAGI2_4, Q86UL8 (setting [1]) it was 4.14; in the experiment with MAGI2_6, Q86UL8, “below the threshold”; with MAGI3_2, Q5TCQ9, 5.42; in the experiment with MPP6, Q9NZW5 it was “below the threshold”; with MPP7, Q5T2T1 it was “below the threshold”. Further, the pKd entry with NHERF3_3, Q5T2W1 was “below the threshold”; with NHERF4_1, Q86UT5-2 it was “below the threshold”; in the experiment with NOS1, P29475 (setting [1]) it was 3.81; with PDZD7_3, Q9H5P4 (setting [1]) it was 3.65; in the experiment with PDZRN4_1, Q6ZMN7 it was 3.82; with RADIL, Q96JH8, “below the threshold”. The pKd with SCRIB_2, Q14160 is 3.4; with SNTB1, Q13884 (setting [1]), “below the threshold”; with SNTG1, Q9NSN8, “below the threshold”.
Turning to SVWLRKETRV [CYSLTR2, Q9NS75], the pKd with DLG4_1, P78352 (setting [1]) is 4.92; with FRMPD3, Q5JV73 (setting [1]), “below the threshold”; with GRIP1_3, Q9Y3R0, “below the threshold”; in the experiment with GRIP2_7, Q9C0E4 it was “below the threshold”; in the experiment with HTRA3, P83110 it was “below the threshold”; in the experiment with IL16_1, Q14005 (setting [1]), 3.92. For the same molecule, the pKd entry is “below the threshold” with Inadl_2, Q8NI35; 4.55 in the experiment with Inadl_8, Q8NI35 (setting [1]); “below the threshold” in the experiment with LDB3, O75112 (setting [1]); “below the threshold” with LIMK2, P53671 (setting [1]); 5.03 with LIN7C, Q9NUP9 (setting [1]); “below the threshold” with MAGI1_1, Q96QZ7. The pKd is 5.68 with MAGI2_2, Q86UL8; 4.06 in the experiment with MAGI2_4, Q86UL8 (setting [1]); 3.51 in the experiment with MAGI2_6, Q86UL8; 5.75 with MAGI3_2, Q5TCQ9; “below the threshold” in the experiment with MPP6, Q9NZW5; “below the threshold” in the experiment with MPP7, Q5T2T1. The pKd with NHERF3_3, Q5T2W1 was 3.52; in the experiment with NHERF4_1, Q86UT5-2, “below the threshold”; in the experiment with NOS1, P29475 (setting [1]) it was 3.85; with PDZD7_3, Q9H5P4 (setting [1]) it was 4.86; with PDZRN4_1, Q6ZMN7, 4.76; in the experiment with RADIL, Q96JH8 it was 3.7. The pKd with SCRIB_2, Q14160 turned out to be 4.42; with SNTB1, Q13884 (setting [1]), 5.5; with SNTG1, Q9NSN8, 4.43.
In the case of KRPEMTSSSV [MUC3B, MUC3A, Q02505;Q9H195], the pKd in the experiment with IL16_1, Q14005 (setting [2]) is 3.94; with Inadl_8, Q8NI35 (setting [2]), 4.63; with LIMK2, P53671 (setting [2]) it was “below the threshold”; with LIN7C, Q9NUP9 (setting [2]), “below the threshold”; in the experiment with NOS1, P29475 (setting [2]), “below the threshold”; with PDZD7_3, Q9H5P4 (setting [2]) it was “below the threshold”.
